The text below walks through data of patent publication US20250270320A1 (EUTILEX, published 2025).

For assay [1], the target named is T1, human PD-1 expressed on cells (human, UniProt Q15116 25-288).
T1 construct: whole, on cells; also called hPD-1; 293 cell line stably expressing human PD-1
The assay can be described thus: flow cytometry on cells overexpressing hPD-1. On the technique in general: Flow cytometry measures light scatter and fluorescence of single cells or particles in a stream.

Assay [2] deals with T1, human PD-1 expressed on cells. The assay can be described thus: flow cytometry on activated hCD8 T cells from human blood, 2nd-hIgG-PE detection; 2nd-hIgG-PE alone 1.73.
The target is the same in assay [3]. As to the kind of experiment: cell-based or functional assay.
Assay [4] has the same target. As to the kind of experiment: cell-based or functional assay. The source holds these as a separate data set.
Assay [5] concerns the target T2, recombinant human PD-1-His protein (ECD) (human, UniProt Q15116 25-170).
T2 construct: extracellular domain; Used as ELISA coat and SPR partner; also called rhprotein; antigen; not shown: His tag
The assay can be described thus: SPR, purified hybridoma antibody, recombinant human PD-1-His (ECD). On the technique in general: In SPR one partner is held on a chip, and binding of the other changes the refractive index at the surface.

Assay [6] addresses T2, recombinant human PD-1-His protein (ECD). As to the kind of experiment: Q-ELISA of purified antibody on recombinant human PD-1-His, drawn table. On the procedure: For ELISA, the recombinant human PD-1-His protein was O/N coated on a 96-well ELISA plate at 4° C., and blocked with 5% non-fat skim milk at RT for 1 hr. […]
A general note: ELISA stands for enzyme-linked immunosorbent assay.

Assay [7] has the same target. The assay can be described thus: SPR; number in the sensorgram panel without name or unit, taken as KD in M because 8.999e-9 stands for 9 nM in FIG 9d.
For assay [8] the target is unchanged. As to the kind of experiment: SPR, purified antibody, PD-1 antigen.
In assay [9] the target is T1, human PD-1 expressed on cells. The assay can be described thus: flow cytometry on hPD-1/293 cells, 2nd-hIgG-PE detection; Ctl 2nd-hIgG 0.17, cell only 0.03. From the text:
In addition, each purified humanized antibody was bound to 293 cells expressing human PD-1 and analyzed by flow cytometry.

For assay [10], the target named is T2, recombinant human PD-1-His protein (ECD). The assay can be described thus: SPR; number in the sensorgram panel without name or unit, taken as KD in M because 5.789e-9 stands for 5.8 nM in FIG 9d.

Changes are numbered by the printed parent chain.

T1 sequence (Q15116 25-288): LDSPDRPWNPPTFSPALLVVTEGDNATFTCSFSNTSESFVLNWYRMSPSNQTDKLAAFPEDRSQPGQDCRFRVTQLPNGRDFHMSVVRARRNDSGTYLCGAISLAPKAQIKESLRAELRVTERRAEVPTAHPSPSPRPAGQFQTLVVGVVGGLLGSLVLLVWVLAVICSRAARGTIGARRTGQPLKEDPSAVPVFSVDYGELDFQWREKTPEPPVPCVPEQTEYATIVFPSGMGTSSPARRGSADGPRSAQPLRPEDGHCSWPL
T2 sequence (Q15116 25-170): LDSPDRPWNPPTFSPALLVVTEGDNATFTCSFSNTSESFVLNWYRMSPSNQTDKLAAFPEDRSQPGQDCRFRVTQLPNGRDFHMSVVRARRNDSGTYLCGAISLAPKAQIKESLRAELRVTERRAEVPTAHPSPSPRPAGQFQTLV

B1: T15-02 (antibody, V domains shown)
VH: EVQLVESGGGLVKPGGSLRLSCAASGFTFSSFGMSWVRQAPGKGLELVATIYSNGDYTYYPDSVKGRFTVSRDNAKNSLYLQMNSLRAEDTAVYYCARYYGNYGGYFDYWGQGTLVTVSS
VL: AIQMTQSPSSLSASVGDRVTITCKASQSVSNDVAWYQQKPGKAPKLLIYYASNRYTGVPSRFSGSGSGTDFTLTISSLQPEDFATYYCQQDFWYPPTFGGGTKVEIK
As for B1, the “percent of cells in the positive quadrant” value (shortened to “percent of cells”) in [1] came out at 96.9%; in assay [2] it was 19.3%.

B2: T15-03 (antibody, V domains shown)
VH: B1 VH
VL: B1 VL with S52Y, N53M, Q89H, F92Y, W93S, Y94S
Turning to B2, the “percent of cells” value was 96.7% in assay [1] and 10.7% in [2]. In assay [3], the “EC50 (read off the curve); PD-1/PD-L1 Blockade Bioassay, luciferase RAU” value is about 1 µg/mL.

B3: T15-04 (antibody, V domains shown)
VH: B1 VH
VL: B1 VL with S52Y, N53M, F92Y, W93S, Y94S
With B3, the “percent of cells” value in [1] came out at 96.6%; in assay [2], 12.4%.

B4: T15-05 (antibody, V domains shown)
VH: B1 VH with S53H, N54S, G55R
VL: B1 VL with F92Y, W93S, Y94S
Take B4: the “percent of cells” value was 97.5% in assay [1] and 16.1% in assay [2].

B5: 2-7C5 hybridoma antibody (antibody, V domains shown)
VH: EVQLVESGGGLVQPVGSLKLSCAASGFTFSSFGMSWVRQTPDKRLELVATIYSNGDYTYYPDSVKGRFTVSRDNAKNTLYLQMSSLKSEDTAMYYCARYYGNYGGYFDYWGQGTTLTVSS
VL: SIVMTQTPKFLLVSAGDRVTITCKASQSVSNDVAWYQQKPGQSPKLLIYYASNRYTGAPDRFTGSGYGTDFTFTISTVQAEDLAVYFCQQDYSSPPTFGGGTKLEIK
notes: Mouse hybridoma antibody
Take B5: the “IC50 (read off the curve); PD-1/PD-L1 blocking reporter assay, fold induction” value in assay [4] was about 3 µg/mL. Also, in assay [5], the Kd amounted to 17.1 nM, the koff was 0.00127 s⁻¹ and the kon is 74200 M⁻¹ s⁻¹.

B6: humanized antibody 8D4 (antibody, V domains shown)
VH: QVQLVQSGAEVKKPGASVKVSCKASGYTFTTYWIHWVRQAPGQGLEWIGYINPTTGYTEYNQKFKDRATLTADKSTSTAYMELSSLRSEDTAVYYCARGVRYYFDYWGKGTTVTVSS
VL: DIVMTQSPDSLAVSLGERATINCKSSQSLLDSRTRKNYLAWYQQKPGQPPKLLIYWASTRESGVPDRFSGSGSGTDFTLTISSLQAEDVAVYYCKQSYNLITFGQGTKLEIK
notes: Humanized antibody
Turning to B6, the “percent of cells” value in assay [1] came out at 96.2%. Also, in [6], the “OD=405, row 1 of 8 (1/2 serial dilution from 500ng)” value turned out to be 3.35; the “OD=405, row 2 of 8 (1/2 serial dilution from 500ng)” value was 3.31; the “OD=405, row 3 of 8 (1/2 serial dilution from 500ng)” value was 3.33; the “OD=405, row 4 of 8 (1/2 serial dilution from 500ng)” value was 3.26. In addition, in [6], the “OD=405, row 5 of 8 (1/2 serial dilution from 500ng)” value was found to be 2.95; the “OD=405, row 6 of 8 (1/2 serial dilution from 500ng)” value was found to be 2.41; the “OD=405, row 7 of 8 (1/2 serial dilution from 500ng)” value amounted to 1.61; the “OD=405, row 8 of 8 (1/2 serial dilution from 500ng)” value was 0.975. The Kd in assay [7] worked out at 18.5 nM. In addition, in assay [8], the Kd came to 29.6 nM, the koff worked out at 0.00176 s⁻¹ and the kon was 59400 M⁻¹ s⁻¹. For the same molecule, in assay [9], the “percent of cells” value worked out at 96.1%.

B7: 8D4-T16-02 (antibody, V domains shown)
VH: B6 VH
VL: DIVMTQSPDSLAVSLGERATINCKSSQSLLDSRTRKNYLAWYQQKPGQPPKLLIYWASTRESGVPDRFSGSGSGTDFTLTISSLQAEDVAVYYCQQQYDPPITFGQGTKLEIK
notes: Engineered clone of humanized 8D4; also called T1-02
Turning to B7, the “percent of cells” value in assay [1] is 95.5%. In addition, the equilibrium dissociation constant (Kd) in [7] is 1800 nM.

B8: humanized antibody 2B3W (antibody, V domains shown)
VH: EVQLVESGGGLVQPGGSLRLSCAASGFVFSNYDMSWVRQAPGKGLEWVAYITIGGGTTYYPDTVKGRFTISRDNAKNSLYLQMNSLRAEDTAVYYCARWVYDPLYAMDYWGQGTTVTVSS
VL: DIVLTQTPLSLSVTPGQPASISCRASESVDNYGISFMNWFLQKPGQPPQLLIYAASNQGSGVPDRFSGSGSGTDFTLKISRVEAEDVGVYYCQQSKEVPWTFGQGTKVEIK
notes: Humanized antibody made in Expi293 cells
As for B8, the “percent of cells” value in assay [1] came out at 95.6%. Also, in [6], the “OD=405, row 1 of 8 (1/2 serial dilution from 500ng)” value was 3.17; the “OD=405, row 2 of 8 (1/2 serial dilution from 500ng)” value came out at 3.15; the “OD=405, row 3 of 8 (1/2 serial dilution from 500ng)” value was 3.2; the “OD=405, row 4 of 8 (1/2 serial dilution from 500ng)” value came out at 3.13. In assay [6], the “OD=405, row 5 of 8 (1/2 serial dilution from 500ng)” value came out at 2.92; the “OD=405, row 6 of 8 (1/2 serial dilution from 500ng)” value stood at 2.45; the “OD=405, row 7 of 8 (1/2 serial dilution from 500ng)” value was 1.7; the “OD=405, row 8 of 8 (1/2 serial dilution from 500ng)” value was found to be 1.09. Besides, the Kd in assay [10] was 428 nM. Besides, in assay [8], the Kd was determined as 13.4 nM, the koff amounted to 0.00271 s⁻¹ and the kon was 203000 M⁻¹ s⁻¹. Also, the “percent of cells” value in assay [2] was found to be 9.77%. For the same molecule, the “percent of cells” value in [9] was 94.7%.

B9: T14-01 (antibody, V domains shown)
VH: B8 VH
VL: B8 VL with D30T, N31D
In the case of B9, the “percent of cells” value in assay [1] stood at 96.8%; in assay [2], 17.4%.

B10: T14-02 (antibody, V domains shown)
VH: B8 VH
VL: B8 VL with K96E
Turning to B10, the “percent of cells” value came to 96% in assay [1] and 11.8% in assay [2].

B11: T14-03 (antibody, V domains shown)
VH: B8 VH
VL: B8 VL with D30T, N31D, K96E
For B11, the figures for the “percent of cells” value in assay [1] and in assay [2] were 90.9% and 9.55%, respectively.

B12: T14-04 (antibody, V domains shown)
VH: B8 VH with V100R, Y105F
VL: B8 VL
Regarding B12, the “percent of cells” value in assay [1] is 95%; in assay [2] it was 17.1%. For the same molecule, in assay [3], the “EC50 (read off the curve); PD-1/PD-L1 Blockade Bioassay, luciferase RAU” value was about 0.8 µg/mL.

B13: 4-8D4 hybridoma antibody (antibody, V domains shown)
VH: QVQLQQSGAELAKPGASVKMSCKASGYTFTTYWIHWVKQRPGQGLEWIGYINPTTGYTEYNQKFKDKATLTADKSSNTAYMQLSSLTSEDSAVYYCARGVRYYFDYWGKGTTLTVSS
VL: DIVMSQSPSSLAVSAGEKVTMSCKSSQSLLDSRTRKNYLAWYQQKPGQSPKLLIYWASTRESGVPDRFTGSGSGTDFTLTISSVKAEDLAVYLCKQSYNLITFGAGTKLELK
notes: Mouse hybridoma antibody
For B13, the “IC50 (read off the curve); PD-1/PD-L1 blocking reporter assay, fold induction” value in assay [4] is about 3 µg/mL. Also, in assay [5], the Kd turned out to be 15.9 nM, the koff was 0.00106 s⁻¹ and the kon amounted to 66700 M⁻¹ s⁻¹.

For orientation: Kd means the concentration at which binding is half-saturated. A word on the koff: it is the rate constant with which the complex falls apart. The term kon denotes the second-order rate constant of association.
